# Source: US8809529B2, “Imidazo[1,2-α]pyrazine derivatives” (Promega Corporation, priority 2010, dated 2014)
# What was measured:
# [1] = Luminescence of OgLuc variants expressed in NIH3T3 cells; assay type: cell-based; conditions: for Increase in Luminescence: NIH3T3: normalized to 9B8 opt
# Description: The PCR library in the pF4Ag-based non-fusion background was screened for additional variants with increased luminescence compared to 9B8 opt+K33N+170G (SEQ ID NOs: 68 and 69). Selected variants were then assayed in HEK293 and NIH3T3 cells. For each cell type, 15,000 cells were plated and grown overnight at 37° C. The next day, the cells were transfected as described in Example 25 with 10 ng pGL4.13 (Promega Corp.) as a transfection control and 100 ng of the OgLuc test DNA. The media was removed, and the cells were lysed with 100 μL of lysis buffer as described in Example 25 except the lysis buffer contained 100 mM MES pH 6.0 instead of HEPES, and luminescence measured using a GLOMAX® Luminometer.
# (§1) Based on the above data, further combination variants were designed and generated (see Table 10) in the context of the pF4Ag-based non-fusion vector background without the 170G. The variants were analyzed in E. coli, HEK293 and NIH3T3 cells as described above and compared to 9B8 opt+K33N. The variants were also examined for luminescence with native coelenterazine.
# The brightness of the variants expressed in HEK293 and NIH3T3 cells was measured as described previously. The luminescence of the variants was normalized to the luminescence generated by 9B8 opt (Table 27).
# The variants 9B8 opt+K33N+T39T+K43R+Y68D (“V2”; SEQ ID NOs: 92 and 93), 9B8 opt+K33N+L27V+K43R+Y68D (SEQ ID NOs: 339 and 340), 9B8 opt+K33N+L27V+T39T+K43R+S66N (SEQ ID NOs: 341 and 342), and 9B8 opt+K33N+L27V+T39T+K43R+Y68D (“L27V”; SEQ ID NOs: 88 and 89) were subcloned into the Id-OgLuc-HT7 sandwich background as described above and assayed in HEK293 and NIH3T3 cells as described above. The luminescence generated by the sandwiched variants were compared to the luminescence generated by the […] sandwich (SEQ ID NOs: 59 and 60) (Table 38). The L27V sandwich (SEQ ID NOs: 90 and 91) and V2 sandwich (SEQ ID NOs: 94 and 95) had at least 1.3× fold-increase in luminescence in HEK293 and NIH3T3 cells.
# The sandwich and non-sandwich versions of the variants V2, 9B8 opt+K33N+L27V+K43R+Y68D, 9B8 opt+K33N+L27V+T39T+K43R+S66N, and L27V were assayed in HEK293 and NIH3T3 cells as described in Example 37. The luminescence generated by the non-sandwiched variants was compared to the luminescence generated by the sandwiched variants (Table 39).
# [2] = Enzyme kinetics of OgLuc variants (Km, Vmax); assay type: biochemical, E. coli; conditions: PBI-3939, average of three replicates
# Description: Using methods known in the art, enzyme kinetic assays measuring luminescence were performed with the lysates of E. coli containing N and the IV variants 15C1, 9B8, 9F6, and 9A3. […] Two fold serial dilutions of PBI-3939 in the assay buffer described previously in Example 26 were assayed with the diluted lysates. […] Variants 9B8 and 9F6 had higher Km values compared to IV while Km values for the other variants were unchanged.
# Luminescence was measured on a TECAN® INFINITE® F500 luminometer.
# The enzyme kinetics values were determined for the OgLuc variants as described previously, except luminescence was measured using a GLOMAX® luminometer. Three replicates were used for each variant.
# [3] = Brightness and relative specificity of 9B8 and 9B8 opt+K33N variants in E. coli lysates; assay type: biochemical; conditions: for Fold over coelenterazine / Fold over 9B8: bacterial lysates; for Fold over coelenterazine: PBI-3939 luminescence divided by native coelenterazine luminescence; for Fold over 9B8: luminescence normalized to 9B8 opt
# Description: Additional variants with improved relative specificity to novel PBI-3939 were generated as described previously by saturating amino acid positions 18, 68, 72, 75, and 90 in variant 9B8. […] Relative specificity was determined from the ratio of the luminescence of the variant with PBI-3939 to the luminescence of the variant with native coelenterazine, normalized to the ratio of corresponding luminescence of 9B8. Table 8 lists 9B8 variants (“Variant”) with at least 1.1× fold-increase in relative specificity for PBI-3939. […] 9B8 variants with amino acid substitutions K, D, F, G, Y, W, and H at position 18 had the highest fold improvement in relative specificity.
# A new OgLuc library was created using 9B8opt+K33N as a starting template. The random library was created using DIVERSIFY® PCR Random Mutagenesis Kit (ClonTech; Catalog #630703). Condition 5 (as listed in the user manual) was used to generate additional variants, and the average mutation rate was calculated to be 2.6 mutations per gene by compiling sequence data from 83 randomly selected clones. This PCR library was cloned into the pF4Ag-based, non-fusion vector background described previously and the sandwich background, i.e., Id-OgLuc-HT7 (described in Example 45). Variants in the pF4Ag-base non-fusion vector background are designated with (NF). Variants in the sandwich vector background are designated with (F). In order to clone the PCR product into both vectors, an amino acid, i.e., a glycine, was appended to the variant sequence in pF4Ag, generating a new position 170 in the OgLuc variant (“170G”). The 170G is present in the sandwich construct, but in this case is considered part of the linker between OgLuc and HT7. For each library, 4,400 E. coli clones were assayed as described previously with the following exceptions. […] The assay buffer contained 100 mM MES pH 6.0 instead of HEPES, and 35 mM thiourea. The assay volumes were as follows: 10 μL cells, 40 μL lysis buffer, and 50 μL assay buffer.
# as §1
# E. coli lysates containing the variants were prepared and analyzed as described previously. Luminescence generated from the lysates was measured using the novel PBI-3939 and native coelenterazine as substrates. The luminescence of the variants was normalized to the luminescence generated by 9B8 opt (Table 12). The relative specificity of the variants for PBI-3939 and native coelenterazine was calculated by dividing the luminescence of the variants using PBI-3939 as a substrate with the luminescence of the variants using native coelenterazine as a substrate (Table 12).
# [4] = assay type: physicochemical, E. coli; conditions: for ½ life hours: 60° C., assay buffer 100 mM MES pH 6.0
# Description: Aliquots were removed at different time-points and placed on dry ice to freeze the samples. […] Luminescence was measured on a GLOMAX® luminometer (Promega Corp.).
# The thermal stability of the variants at 60° C. was examined as described above, except the assay buffer contained 100 mM MES pH 6.0 instead of HEPES.
# [5] = relative specificity for PBI-3939
Molecule,Fold-Decrease in Luminescence in the Presence of Sandwich Background: NIH 3T3 cells [1],"Fold over 9B8 opt + K33N: NIH3T3 ([1]; luminescence, PBI-3939)",Increase in Luminescence: NIH3T3 [1],"Fold over Native Coelenterazine: NIH3T3 [1, 5]",Km [2],Vmax [2],Fold over coelenterazine [3],Fold over 9B8 [3],"Fold over 9B8 opt + K33N: E. coli ([3]; luminescence, PBI-3939)","Fold over Native Coelenterazine: E. coli [3, 5]",½ life hours [4],RLU ([4]; luminescence at start of incubation (t=0)),T1/2(60° C.) ([4]; pH 7)
"L27V: 9B8 opt+K33N variant with L27V, T39T, K43R, Y68D (protein) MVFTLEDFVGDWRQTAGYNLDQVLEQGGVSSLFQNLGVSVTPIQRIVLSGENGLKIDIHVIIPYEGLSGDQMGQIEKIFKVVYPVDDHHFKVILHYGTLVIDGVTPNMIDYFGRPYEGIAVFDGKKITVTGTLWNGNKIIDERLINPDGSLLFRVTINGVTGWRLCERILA",18,0.7,1.6,85,13.9 µM,"190,000,000 RLU/0.5 sec",110,1.8,0.9,85.2,21.7 h,–,–
"9B8: IV variant with Q18L, F68Y, L72Q, M75K; in Tables 12, 22, 23, 26, 27 “9B8” stands for 9B8 opt (protein) MVFTLEDFVGDWRQTAGYNLDQVLEQGGLSSLFQKLGVSVTPIQKIVLSGENGLKIDIHVIIPYEGLSGYQMGQIEKIFKVVYPVDDHHFKVILHYGTLVIDGVTPNMIDYFGRPYEGIAVFDGKKITVTGTLWNGNKIIDERLINPDGSLLFRVTINGVTGWRLCERILA",–,–,1.0,–,7.7 µM,"86,000,000 RLU/0.5 sec",7,1.0,–,–,5.1 h,–,–
9B8 opt: codon optimized version of the 9B8 variant (protein) MVFTLEDFVGDWRQTAGYNLDQVLEQGGLSSLFQKLGVSVTPIQKIVLSGENGLKIDIHVIIPYEGLSGYQMGQIEKIFKVVYPVDDHHFKVILHYGTLVIDGVTPNMIDYFGRPYEGIAVFDGKKITVTGTLWNGNKIIDERLINPDGSLLFRVTINGVTGWRLCERILA,–,–,–,–,–,–,–,–,–,–,–,"23,283,252,000 RLU",5.7 h
